Drawing on publication PMC6775779, this text covers fold increase of the dimer percentage over WT and stoichiometry N for one substance.

For this assay, the target named is HIV-1 integrase Q214C/Q221C double mutant, in virions (HIV-1). The assay is described as follows: cross-linking.

The stoichiometry N is a count of units in the complex or per binding partner. With “HIV-1 integrase Q214C/Q221C double mutant, in virions (enzyme)”, the fold increase of the dimer percentage over WT worked out at 3 fold and the stoichiometry N was 2.
